Measurements taken from paper PMC7828395, “Mapping the DNA-Binding Motif of Scabin Toxin, a Guanine Modifying Enzyme from Streptomyces scabies” (Toxins, 2021).

System: Nc1nc2c(ncn2[C@@H]2O[C@H](COP(=O)(O)O)[C@@H](O)[C@H]2O)c(=O)[nH]1
Test: purified protein
Conditions: pH 7.9

Work on (Streptomyces scabiei 87.22) yielded a K0.5 of 289 ± 18 µM and a kcat of over 3 s⁻¹.
